Positions count from the first letter of the chain named. In names and notes the source's numbering stands. Values belong to the binder of their own block, whether it stands above or below them.
Tests used:
[1] = target: CD3 antigen of Figures 3B and 3C (not named); experiment: kinetic table of IgGs; method and antigen not stated
hCD3ε1-27-Fc = experiment: monovalent binding affinity (p-1384), method not stated on the sheet
commercial CD3ε = experiment: binding affinity on commercial CD3ε (Creative Biomart CD3E-2194H); method not given
commercial CD3ε, sequence (P07766 22-126): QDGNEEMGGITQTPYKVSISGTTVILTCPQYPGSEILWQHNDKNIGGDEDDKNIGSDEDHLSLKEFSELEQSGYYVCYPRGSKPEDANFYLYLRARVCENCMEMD

[2] = target: human CD3 on T cells (human) (UniProt P07766); experiment: Biacore, monovalent KD of the CD3 arm; form of the CD3 antigen not stated on the sheet [panel B]
human CD3 on T cells (human), sequence (P07766 22-207 limits assumed): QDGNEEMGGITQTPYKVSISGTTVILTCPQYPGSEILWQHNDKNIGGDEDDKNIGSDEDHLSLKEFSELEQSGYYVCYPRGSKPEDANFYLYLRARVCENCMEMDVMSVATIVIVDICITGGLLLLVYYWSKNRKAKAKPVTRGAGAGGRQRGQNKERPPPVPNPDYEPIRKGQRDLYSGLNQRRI

hCD3ε1-27-Fc, sequence (fusion chain, as listed by the source): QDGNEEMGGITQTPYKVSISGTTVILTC

B1: 14C7 (antibody, V domains shown)
VH: EVQLQQSGPELVKPGTSVKISCKASGFSFTNYYIHWMKQRPGQGLEWIGWIYPGSDNTKFNDKFKGKATLTADTSSTTAYMQLSSLTSEDSAVYYCARDSITNYYFDYWGQGTTLTVSS
VL: DVVMTQTPSSLAVSTGEKVTMTCKSSQSLLNIRTRKNCLAWYQQKPGQSPKLLIFWASTRYSGVPDRFTGSGSGTDFTLTIRSVQPEDLAVYYCTQSYTLRTFGGGTKLEIK
Kd [1]: 0.228 nM | koff [1]: 3.79e-05 s⁻¹ | kon [1]: 166000 M⁻¹ s⁻¹

B2: muSP34 (antibody, V domains shown)
VH: EVQLVESGGGLVQPKGSLKLSCAASGFTFNTYAMNWVRQAPGKGLEWVARIRSKYNNYATYYADSVKDRFTISRDDSQSILYLQMNNLKTEDTAMYYCVRHGNFGNSYVSWFAYWGQGTLVTVSS
VL: QAVVTQESALTTSPGETVTLTCRSSTGAVTTSNYANWVQEKPDHLFTGLIGGTNKRAPGVPARFSGSLIGDKAALTITGAQTEDEAIYFCALWYSNLWVFGGGTKLTVL
Kd [1]: 0.249 nM | koff [1]: 4e-05 s⁻¹ | kon [1]: 161000 M⁻¹ s⁻¹

B4: 18F12 (antibody, V domains shown)
VH: QVQLQQSGPELVKPGASVKISCKASGYSFTNYYMHWVKQRPGQGLEWIGWISPGSGSIKYNEKFKGKATLTADTSSSTAYMQLSSLTSEDSAVYYCARDGYSLYFFDFWGQGTTLTVSS
VL: DIVMTQSPSSLAVSAGEKVTMTCKSSQSLLNSRTRKNYLAWYQQKPGQSPKLLIYWASTRESGVPDRFTGSGSGTDFTLTISSVQAEDLAVYYCKQSFILRTFGGGTKLELK
Kd [1]: 0.119 nM | koff [1]: 1.59e-05 s⁻¹ | kon [1]: 134000 M⁻¹ s⁻¹

B6: 27H5-1 (antibody, V domains shown)
VH: QVQLQQSGPELVKPGTSVKISCKTSGYSFINYYTHWVKQRPGQGLEWIGWIYPGNGNIKYNEKFMGKATLTADTSSTTAHMHLSSLVSEDSAVYYCARDSYGSYYFDYWGQGTTLTVSS
VL: B4 VL with A15V, T22S, D66V, K95T, L111I
Kd [1]: 0.492 nM | koff [1]: 0.000115 s⁻¹ | kon [1]: 234000 M⁻¹ s⁻¹

B8: humanized 30A1: VH3 graft + A24V / K4 graft (antibody, V domains shown)
VH: EVQLVESGGGLVQPGGSLRLSCAVSGFSLTNYAIHWVRQAPGKGLEWVGVIWAGGNTKYNSALMSRFTISRDNSKNTLYLQMNSLRAEDTAVYYCAREDSSGYVALDYWGQGTLVTVSS
VL: DIVMTQSPDSLAVSLGERATINCKSSQSLLSGRTRKNYLAWYQQKPGQPPKLLIYWASTRESGVPDRFSGSGSGTDFTLTISSLQAEDVAVYYCKQSYYLLTFGQGTKVEIK
Kd (commercial CD3ε): 1.7 nM

Other lines, results leading:

Kd (hCD3ε1-27-Fc): 11 nM
B3: SP34v52 Fab (Fab, V domains shown)
VH: B2 VH with K15G, K19R, Q78K, S79N, I80T, N87S, K89R, T90A, M95V
VL: EAVVTQEPSLTVSPGGTVTLTCRSSTGAVTTSNYANWVQQKPGQAPRGLIGGTNKRAPWTPARFSGSLLGGKAALTLSGAQPEDEAEYYCALWYSNLWVFGGGTKLTVL

Kd (commercial CD3ε): 0.7 nM
B5: murine 13A3 (antibody, V domains shown)
VH: EVQLQQSGPELVKPGASVRISCKASGYTFTSYYIHWMKQRPGQGLEWIGWIYPGNVNTKYNEKFKGKATLTADNSSSTANMQLSSLTSEDSAVYFCARNHDYYFDYWGQGTTLTVSS
VL: B4 VL with M4L, T22S, F98Y, L111I

Kd (commercial CD3ε): 0.4 nM
B7: murine 30A1 (antibody, V domains shown)
VH: QVQLKESGPGLVAPSQSLSITCTVSGFSLTNYAIHWVRQPPGKGLDWLGVIWAGGNTKYNSALMSRLSFSKDNSKSQVFLEINSLQTDDTAMYYCAREDSSGYVALDYWGQGTSVTVSS
VL: B4 VL with D1N, T22S, N31S, S32G, F98Y, I99Y, R101L, G105A

Kd [2]: 1.3 nM
B9: 38E4v1 (bispecific antibody, part only; not given: anti-HER2 arm and constant regions, V domains shown, not shown: another chain or arm of the molecule; a dimerising Fc or GST)
VH: EVQLVQSGAEVKKPGASVKVSCKASGFTFTSYYIHWVRQAPGQGLEWIGWIYPENDNTKYNEKFKDRVTITADTSTSTAYLELSSLRSEDTAVYYCARDGYSRYYFDYWGQGTLVTVSS
VL: B8 VL with S31N, G32S, P49S, A57T, E61K, Y98F, Y99I, L101R

Kd (hCD3ε1-27-Fc): 1 nM
B10: hu38E4.v1 Fab (Fab, V domains shown)
VH: B9 VH
VL: B8 VL with S31N, G32S, P49S, A57T, E61K, Y98F, Y99I, L101R

Source: patent US20200299408A1
